± gives the standard error. Variants at the floor of the assay were thinned out.
B1: glmS ribozyme (parent)
chain: AUAAAAGCGCCAGAACUACAGAAAUGUAGUUGACGAGGAGGAGGUUUAUCGAAUUUUCGGCGGAUGCCUCCAAA

Variants of: B1
Experiment: self-cleavage kobs at 640 uM GlcN6P; higher = faster cleavage; RNA array
Conditions: with glucosamine-6-phosphate
In short: (§1)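 Barcoded ribozyme variants, transcribed in situ by E. coli RNA polymerase on sequenced MiSeq chips, were followed via a hybridised Cy3 probe at 37 °C. Glucosamine-6-phosphate ranged from 40 μM to 10 mM in HEPES/KCl/Mg(OAc)2 buffer. kobs came from decay fits to per-tile medians, and kcat and KM from weighted Michaelis–Menten fits.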

| Variant | self-cleavage kobs at 640 uM GlcN6P |
| --- | --- |
| AUAAAAGCGCCAGAACUACAGAAAUGUAGUUGACGAGGAGGAGGUUUUUCGAAUUUUUGGCGGCUGCCUCCAAA [A48U C58U A64C] | < 1e-05 s⁻¹ |
| AUAAAAGCGCCAGAACUACAGAAAUGUAGUUGACGAGGAGGAGGUUCAUCGAAGUUUCGACGGAUGCCUCCAAA [U47C U54G G60A] | < 1e-05 s⁻¹ |
| AUAAAAGCGCCAGAACUACAGAAAUGUAGUUGACGAGGAGGAGGUUUAUCGAAAUUUCGGGGGAUGCCUCGAAA [U54A C61G C71G] | 7.31e-05 ± 1.7e-05 s⁻¹ |
| AUAAAAGCGCCAGAACUACAGAAAUGUAGUUGACGAGGAGGAGGUUUAUCAAAUUUUCGGCGUAAGCCUCCAAA [G51A G63U U65A] | < 1e-05 s⁻¹ |
| AUAAAAGCGCCAGAACUACAGAAAUGUAGUUGACGAGGAGGAGGUUUAGCGAAUUUUCGGUGGAUGCCUCAAAA [U49G C61U C71A] | < 1e-05 s⁻¹ |
| AUAAAAGCGCCAGAACUACAGAAAUGUAGUUGACGAGGAGGAGGUUUAUCCAAAUUACGGCGGAUGCCUCCAAA [G51C U54A U57A] | < 1e-05 s⁻¹ |
| AUAAAAGCGCCAGAACUACAGAAAUGUAGUUGACGAGGAGGAGGUUUAUCGAAUUUUCGGCGAAUUUCUCCAAA [G63A G66U C67U] | < 1e-05 s⁻¹ |
| AUAAAAGCGCCAGAACUACAGAAAUGUAGUUGACGAGGAGGAGGUUUAUCGGAUGUUCGGCGUAUGCCUCCAAA [A52G U55G G63U] | < 1e-05 s⁻¹ |
| AUAAAAGCGCCAGAACUACAGAAAUGUAGUUGACGAGGAGGAGGUUUAUUGAUUUUUCGGCGGAUGCCUGCAAA [C50U A53U C70G] | 5.27e-05 ± 2.4e-05 s⁻¹ |
| AUAAAAGCGCCAGAACUACAGAAAUGUAGUUGACGAGGAGGAGGUUUAACGAAUUUUCUGCGGAUGCCUCGAAA [U49A G59U C71G] | < 1e-05 s⁻¹ |
| AUAAAAGCGCCAGAACUACAGAAAUGUAGUUGACGAGGAGGAGGUUUAUCGAAUUUUGGGCGGCUGUCUCCAAA [C58G A64C C67U] | 7.21e-05 ± 2e-05 s⁻¹ |
| AUAAAAGCGCCAGAACUACAGAAAUGUAGUUGACGAGGAGGAGGUUUAUCGAAAUUUCGGCAGAUCCCUCCAAA [U54A G62A G66C] | < 1e-05 s⁻¹ |
| AUAAAAGCGCCAGAACUACAGAAAUGUAGUUGACGAGGAGGAGGUUUACCGAAUAUUCGGCGGAUGCCUCCAAA [U49C U55A] | < 1e-05 s⁻¹ |
| AUAAAAGCGCCAGAACUACAGAAAUGUAGUUGACGAGGAGGAGGUUUAUCGAAUUUUGGGCGGAUGCAUCCAAA [C58G C68A] | 0.000125 ± 3e-05 s⁻¹ |
| AUAAAAGCGCCAGAACUACAGAAAUGUAGUUGACGAGGAGGAGGUUUAUCUAAUUUUCGGCUGAUGCCUUCAAA [G51U G62U C70U] | < 1e-05 s⁻¹ |
| AUAAAAGCGCCAGAACUACAGAAAUGUAGUUGACGAGGAGGAGGUUGAUCAGAUUUUCGGCGGAGGCCUCCAAA [U47G G51A A52G U65G] | < 1e-05 s⁻¹ |
| AUAAAAGCGCCAGAACUACAGAAAUGUAGUUGACGAGGAGGAGGUUUAAUGAAUUUUCGGCGGAUGAGUCAAAA [U49A C50U C67A C68G C71A] | 5.04e-05 ± 1.8e-05 s⁻¹ |
| AUAAAAGCGCCAGAACUACAGAAAUGUAGUUGACGAGGAGGAGGUUUAUCGCAUUUCCGGCGGAUGCGUGCAAA [A52C U57C C68G C70G] | 0.000165 ± 5.4e-05 s⁻¹ |
| AUAAAAGCGCCAGAACUACAGAAAUGUAGUUGACGAGGAGGAGGUUGGUCGAAUUUUCGGCGAAUGCCUCCAAA [U47G A48G G63A] | < 1e-05 s⁻¹ |

Variants of: B1
Experiment: self-cleavage kobs at 2500 uM GlcN6P; higher = faster cleavage; RNA array
Conditions: with glucosamine-6-phosphate
In short: as §1

| Variant | self-cleavage kobs at 2500 uM GlcN6P |
| --- | --- |
| AUAAAAGCGCCAGAACUACAGAAAUGUAGUUGACGAGGAGGAGGUUUUUCGAAUUUUUGGCGGCUGCCUCCAAA [A48U C58U A64C] | < 1e-05 s⁻¹ |
| AUAAAGGCGCCAGCACUACAGAAAUGUAGUUGACGAGGAGGAGGUUUAUCGAGUUUUCGGCGGAUGCCUCCAAA [A6G A14C A53G] | 6.89e-05 ± 1.6e-05 s⁻¹ |
| AUAAAAGCGCCAGAACUACAGAAAUGUAGUUGACGAGGAGGAGGUUUAUCGAAAUUUCGGGGGAUGCCUCGAAA [U54A C61G C71G] | 0.000139 ± 4.6e-05 s⁻¹ |
| AUAAAAGCGCCAGAACUACAGAAAUGUAGUUGACGAGGAGGAGGUUUAGCGAAUUUUCGGUGGAUGCCUCAAAA [U49G C61U C71A] | < 1e-05 s⁻¹ |
| AUAAAAGCGCCAGAACUACAGAAAUGUAGUUGACGAGGAGGAGGUUUAUCCAAAUUACGGCGGAUGCCUCCAAA [G51C U54A U57A] | < 1e-05 s⁻¹ |
| AUAAACGCGCCUGAACUACAGAAAUGUAGUUGACGAGGAGGAGGUUUAACGAGAUUUCGGCGGAUGCCUCCAAA [A6C A12U U49A A53G U54A] | < 1e-05 s⁻¹ |
| AUAAACGCGCCAGAACUACAGAAAUGUAGUUAACGAGGAGGAGGUUUAUCGAAUUUUCCGCGGAUGCCUCCAAA [A6C G32A G59C] | < 1e-05 s⁻¹ |
| AUAAAAGCGCCAGAACUACAGAAAUGUAGUUGACGAGGAGGAGGUUUAUCGAAUUUUCGGCGAAUUUCUCCAAA [G63A G66U C67U] | < 1e-05 s⁻¹ |
| AUAAAAGCGCCAGAACUACAGAAAUGUAGUUGACGAGGAGGAGGUUUAUCGGAUGUUCGGCGUAUGCCUCCAAA [A52G U55G G63U] | 0.000758 ± 0.0003 s⁻¹ |
| AUAAAGGCGCCAGAACUACAGAAAUGUAGUUGAGGAGGAAGAGGUUUAUCGAAUUUUCGGCGGAUGGCUUCAAA [A6G C34G G40A C67G C70U] | < 1e-05 s⁻¹ |
| AUAAACCCGUCAGAACUACAGAAAUGUACUUGACGAGGAGGAGGUUUAUCGAAUUUUGGGCGGAUGCCUCCAAA [A6C G7C C10U G29C C58G] | < 1e-05 s⁻¹ |
| AUAAAGGCGCCAGAACUACAGAAAUGUAGUUGAUGAGGACGAGGUUUAUCGAAUUUUCGGCGGAUGCCUCCAAA [A6G C34U G40C] | < 1e-05 s⁻¹ |
| AUAAAAGCGCCAGAACUACAGAAAUGUAGUUGACGAGGAGGAGGUUUACCGAAUAUUCGGCGGAUGCCUCCAAA [U49C U55A] | < 1e-05 s⁻¹ |
| AUAAAGGCGCCCGAACUACAGAAAUGUAGUUGACGACGAGGAGGAUUAUCGAAUUUUCGGCGGAUGCCUUCAAA [A6G A12C G37C U45A C70U] | < 1e-05 s⁻¹ |
| AUAAAAGCGCCAGAACUACAGAAAUGUAGUUGACGAGGAGGAGGUUGAUCAGAUUUUCGGCGGAGGCCUCCAAA [U47G G51A A52G U65G] | < 1e-05 s⁻¹ |
| AUAAAGGCGCCAGAACUACAGAAAUGUAGUUGACGAGGUGGAGGUUUACCGAAUUUUCGGCGGAUGCCUCCAAA [A6G A39U U49C] | < 1e-05 s⁻¹ |
| AUAAAAGCGCCAGAACUACAGAAAUGUAGUUGACGAGGAGGAGGUUUAUCGCAUUUCCGGCGGAUGCGUGCAAA [A52C U57C C68G C70G] | 0.000133 ± 5.6e-05 s⁻¹ |

Variants of: B1
Experiment: self-cleavage kobs at 10000 uM GlcN6P; higher = faster cleavage; RNA array
Conditions: with glucosamine-6-phosphate
In short: as §1

| Variant | self-cleavage kobs at 10000 uM GlcN6P |
| --- | --- |
| AUAAAAGCGCCAGAACUACAGAAAUGUAGUUGACGAGGAGGAGGUUUAGCGAAUUUUCGGUGGAUGCCUCAAAA [U49G C61U C71A] | < 1e-05 s⁻¹ |

Reference: the supplement of paper PMC7125110
